For experiment [1], the target named is Peptide 1593 (…) (Mycobacterium tuberculosis).
For experiment [2] the target is unchanged. Briefly: indirect ELISA, supernatant on 1 ug/ml coated peptide. Background: An ELISA detects its analyte on a solid surface through an enzyme-linked reagent.
Experiment [3] shares this target. As to the kind of experiment: indirect ELISA, recombinant antibody on 1 ug/ml coated peptide.
For experiment [4] the target is unchanged. This is another data set of the same source.
Experiment [5] shares this target. Briefly: SPR (Biacore 8K), antibody immobilised, peptide as analyte.
The target is the same in experiment [6]. Briefly: SPR (Biacore 8K), antibody amine-coupled to CM5, peptide as analyte, 25 C. (In general: In SPR one partner is held on a chip, and binding of the other changes the refractive index at the surface.)
For experiment [7] the target is unchanged. As to the kind of experiment: SPR (Biacore), IgG amine-coupled, peptide as analyte.
Experiment [8] addresses monoclonal antibody 65D3-1.
Experiment [9] has as its target Peptide 2004 (…) (Mycobacterium tuberculosis).

For orientation: Kd means the free concentration of one partner at which half of the binding sites on the other are occupied at equilibrium, for simple one-to-one binding. The low end stands for a tighter complex, the high end for a looser complex. Usually koff stands for the rate constant with which the complex falls apart. A higher koff goes with a short-lived complex. One may read the kon as the rate constant with which the complex forms.

Like-named read-outs stand apart in the source and are kept apart here. Where only a bound is given, the exact number is not on record here.

B1: Antibody 67G8-2 (antibody, V domains shown)
VH: QSVEESGGRLVTPGTPLTLTCTVSGFSLGNYDGHWVRQTPEKGLEWIGVIATIGDTYYASWAKGRFSISKTSATVELRITSPTTEDTATYFCVRGDSRTSNEIFNLWGQGTLVTVSS
VL: AVLTQTPSPVSAAVGGTLTINCQSTRSVHNNICLSWYQQKPGQPPKLLIYSASTLASGVPSRFKGSGSGTQFTLAINDVQCGDAATYYCAGCFPSKSDMYGFGGGTEVVVK
In experiment [1], B1 came in with a Kd of 0.101 nM, an off-rate (koff) of 3.02e-05 s⁻¹ and an on-rate constant (kon) of 299000 M⁻¹ s⁻¹. In experiment [2], the OD450, supernatant 1:90 came to 3.1 OD450; the OD450, supernatant 1:270 worked out at 2.33 OD450; the OD450, supernatant 1:810 came out at 1.31 OD450; the OD450, supernatant 1:2,430 is 0.616 OD450. In experiment [2], the OD450, supernatant undiluted is 3.22 OD450 and the Titer is > 2430 dilution 1:x. Also, in experiment [3], the OD450 at 1.95 ng/ml (1:512,000) was 0.876 OD450, the OD450 at 3.90 ng/ml (1:256,000) stood at 1.21 OD450, the OD450 at 7.81 ng/ml (1:128,000) was 1.66 OD450 and the OD450 at 15.62 ng/ml (1:64,000) came to 2.14 OD450. Moreover, in experiment [3], the OD450 at 31.25 ng/ml (1:32,000) stood at 2.45 OD450, the OD450 at 62.50 ng/ml (1:16,000) amounted to 2.61 OD450, the OD450 at 125.00 ng/ml (1:8,000) was 2.76 OD450 and the OD450 at 250.00 ng/ml (1:4,000) is 2.8 OD450. In addition, in experiment [3], the OD450 at 500.00 ng/ml (1:2,000) turned out to be 2.83 OD450, the OD450 at 1,000.00 ng/ml (1:1,000) was found to be 2.85 OD450 and the Titer is > 512000 dilution 1:x.

B2: Antibody 135A6-1 (antibody, V domains shown)
VH: QSVEESGGRLVTPGTPLTLTCTVSGFSLGNYDISWVRQAPGKGLEWIGVIATVGDTYYASWAKGRFTISKTSATVDLKITSPTTEDTATYFCVRGDSPSTNEIFGLWGQGTLVTVSS
VL: AVLTQTPSPVSAAVGGTLTINCQSSRTVYNNICLSWYQQKLGQPPKLLIYGASTLTSGVPSRFRGSGSGTQFTLTINDVQCGDAATYYCAGCFPSTSDMYGFGGGTEVVVK
In [2], B2 displayed an OD450, supernatant 1:90 of 3.46 OD450; an OD450, supernatant 1:270 of 3.22 OD450; an OD450, supernatant 1:810 of 2.68 OD450; an OD450, supernatant 1:2,430 of 1.69 OD450. Further, in experiment [2], the OD450, supernatant undiluted was 3.27 OD450 and the Titer was > 2430 dilution 1:x.

B3: Antibody 101G10-2 (antibody, V domains shown)
VH: QSVEESGGRLVTPGTPLTLTCTVSGFSLSSYDMTWVRQAPGKGLEYIGVISYGGSAYYASWAKGRFTISKTSTTVDLKITSPTTEDTATYFCARGDSDGSSELFNLWGQGTLVTVSS
VL: AVLTQTPSPVSAPVGGTVSINCQSSKSVYNNNCLSWYQQKPGQPPNLLIYGASTLASGVPSRFKGSGSGTQFTLTINDVQCDDAATYYCAGCFASTNDMYGFGGGSEVVVK
Consider B3, for which, in experiment [2], the OD450, supernatant 1:90 is 3.22 OD450; the OD450, supernatant 1:270 stood at 3.21 OD450; the OD450, supernatant 1:810 was 3.1 OD450; the OD450, supernatant 1:2,430 amounted to 2.41 OD450. In experiment [2], the OD450, supernatant undiluted was 3.23 OD450 and the Titer was > 2430 dilution 1:x.

B4: Antibody 125D9-1 (antibody, V domains shown)
VH: QPVEESGGRLVTPGTPLTLTCTVSGFSLSSYDMTWVRQAPGKGLEYIGVVAYGGATYYASWAKGRFTISKTSTTVDLKITSPTTEDTATYFCARGDSDGSSELFNLWGQGTLVTVSS
VL: AVLTQTPSPVSAAVGGTVTINCQSSKSVYNNNCLSWYQQKQGQPPKLLIYQASTPASGVPSRFKGSGSGTQFTLTINDVQCDDAATYYCAGCFASTSDMYGFGGGTGVVVK
For B4, in experiment [2], the OD450, supernatant 1:90 is 3.37 OD450; the OD450, supernatant 1:270 stood at 3.31 OD450; the OD450, supernatant 1:810 was found to be 3.27 OD450; the OD450, supernatant 1:2,430 was determined as 2.85 OD450. Besides, in [2], the OD450, supernatant undiluted was 3.2 OD450 and the Titer was > 2430 dilution 1:x.

B5: monoclonal antibody 65D3-1 (antibody, V domains shown)
VH: QSLEESGGRLVTPGGSLTLTCTVSGFSLSTHDISWVRQAPGKGLEWIGVIARRGSTYYASWAKGRFTISKTSTTVDLKITSPTIEDTATYFCAREEFDFWGQGTLVTVSS
VL: AVLTQTASPVSAAVGGTVTISCQSSQSVYNNKELSWFQQKPGQPPKLLISYASTLASGVPSRFKGSGSGTQFTLTISDLECDDAATYYCLGGYASTIDMWAFGGGTEVVVK
Take B5: in [4], the off-rate constant (koff) came to 0.000238 s⁻¹ and the association rate constant (kon) came to 138000 M⁻¹ s⁻¹. Moreover, in experiment [5], the Kd stood at 1.72 nM. This molecule displayed a Kd in experiment [6] of 1.72 nM.

B6: 65D3 wild-type recombinant IgG (VH + VL) (antibody, V domains shown)
VH: QSLEESGGRLVTPGGSLTLTCTVSGFSLSTHDISWVRQAPGKGLEWIGVIARRGSTYYASWAKGRFTISKTSTTVDLKITSPTIEDTATYFCAREEFDFWGQGTLVTVSS
VL: AVLTQTASPVSAAVGGTVTISCQSSQSVYNNKELSWFQQKPGQPPKLLISYASTLASGVPSRFKGSGSGTQFTLTISDLECDDAATYYCLGGYASTIDMWAFGGGTEVVVK
With B6, in experiment [7], the equilibrium dissociation constant (Kd) turned out to be 0.755 nM, the dissociation rate constant (koff) was determined as 0.00017 s⁻¹ and the kon stood at 225000 M⁻¹ s⁻¹.

B7: Antibody 91B4-1 (antibody, V domains shown)
VH: QSLEESGGRLVSPGGSLTLTCTVSGIDLSRFGVSWVRQAPGKGLEWTGYIHTDGNVYYASWAKGRFTISKTSTTVDLKMTSLTTEDTATYFCARGGYAADLWGQAALVTVSS
VL: DPMLTQTPSSVSAAVGGTVTISCQSSESVYKNYLAWYQQKLGQPPKLLIGATSTLVSGVPSRFKGSGSRTQFSLTISDLECDDAATYYCVGGYTGKNVFGGGTEVVVK
In experiment [2], B7 had an OD450, supernatant 1:90 of 3.04 OD450; an OD450, supernatant 1:270 of 2.27 OD450; an OD450, supernatant 1:810 of 1.3 OD450; an OD450, supernatant 1:2,430 of 0.618 OD450. Besides, in [2], the OD450, supernatant undiluted stood at 3.12 OD450 and the Titer is > 2430 dilution 1:x.
In [8], TDAATLAQEAGNFERC (modifications not checked) [Peptide 1593 (…)] yielded an IC50 (read off the curve) of 2 nM.

B8: Antibody 6D10-1 (antibody, V domains shown)
VH: QSVEESGGRLVTPGTPLTLTCTVSGFSLSDVTMSWVRQAPGKGLEWIGIIGRRGRIWYANWAKGRFTISKTSPTVDLKIISPTSDDTATYFCARGAVSSDWNMYGMDLWGPGTLVTVSS
VL: QVLTQTPSSVSAPVGGTVTINCQSSQSVYNNENLAWYQQKLGQPPKLLIYGASTLASGVSSRFEGSGSGTQFALTISGVQCDDAATYYCQGEFDCSSADCFAFGGGTEVVVK
B8 returned a rank by relative ELISA signal across the dilution series (1 = highest) in experiment [9] of 2.

B9: Antibody 5B7-1 (antibody, V domains shown)
VH: QSVEESGGRLVTPGTPLTLTCTVSGFSLSDVTISWVRQAPGKGLKWTGIIGRRGRIRYADWAKGRFTISKTSTTVDLKITSPTTDDTATYFCARAYVSSDWNIYGMDLWGPGTLVTVSS
VL: QVLTQTASPVSAPVGGTVTINCQASQSVYNNKNLAWYQQKLGQPPKLLIYEASKLASGVSSRFEGSGSGTQFALTISGVQCDDAATYYCQGEFDCSSADCFVFGGGTEVVVK
B9 gave a rank by relative ELISA signal across the dilution series (1 = highest) in [9] of 3.

B10: Antibody 55H8-1 (antibody, V domains shown)
VH: QSMEESGGRLVTPGTPLTLTCTVSGFSLSDHAMSWVRQAPGKGLEWIGIVGRRGRTYYASWAKGRFTISKTSTTVDLKITSPTIEDTATYFCARGYVSSDWNIYGMDLWGPGTLVTVSS
VL: QVLTQTPSPVSAAVGGTVTINCQASQSVYNNKNLAWYQQKPGQPPKLLIYEASTLASGVSSRFKGSGSGTQFTLTISGVQCDDAATYYCQGEFDCSSADCFAFGGGTEVVVK
Molecule B10 had a rank by relative ELISA signal across the dilution series (1 = highest) in [9] of 4.

B11: Antibody 3E9-1 (antibody, V domains shown)
VH: QSLEESGGRLVTPGGSLTLTCTVSGIDLSSNAMGWVRQAPGEGLEWIGSIYASGNTYYASWAKGRFAISKTSTTVDLKMTSLTAADTATYFCARLFNIWGPGTLVTVSS
VL: ADIVLTQTPASVSSVVGGTVTINCQASQSVFDNKNLSWFQQKPGQPPKQLIYGASTLDSGVPSRFKGSGSGTQFTLTISDMQCDDAATYYCGGRDSGNIYDFGGGTEVVVK
As to B11, the rank by relative ELISA signal across the dilution series (1 = highest) in experiment [9] was 7.

B12: Antibody 4G6-1 (antibody, V domains shown)
VH: QSLEESGGRLVTPGTPLTLTCTVSGIDLSSNAMGWVRQAPGEGLQWIGSIYSSGNTYYASWARGRFAISRTSTTVDLKMTSLTAADTATYFCARLFNIWGPGTLVTVSS
VL: ADIVVTQTPASVSADVGGTVTINCQASQSVYDNKNLAWFQQKPGQPPKQLIYGASTVASGVPSRFKGSGSGTQFTLTISDVQCDDAATYYCGGRDNDNIYDFGGGTEVVVK
B12 displayed a rank by relative ELISA signal across the dilution series (1 = highest) in experiment [9] of 10.

B13: Antibody 21F10-1 (antibody, V domains shown)
VH: QSVEESGGRLVTPGTPLTLTCTVSGIDLSSNAVGWVRQAPGEGLEWIGSIYSSGNSYYASWAKGRFAISRTSTTVDLKMTRLTAADTATYFCARLFNIWGPGTLVTVS
VL: ADIVLTQTPASVSSVVGGTVAINCQASQSVYDNKNLSWFQQKPGQTPKQLIYGASTLASGVPSRFKGSGSGTQFTLTISGVQCDDAATYYCGGRDDDNIYDFGGGTEVVVK
B13: the rank by relative ELISA signal across the dilution series (1 = highest) in experiment [9] amounted to 11.

B14: Antibody 76H12-1 (antibody, V domains shown)
VH: QELKESGGRLVTPGGSLTLSCTASGIDLSGSAMGWVRQAPGQGLEWIGSIYVSGNTYYASWAKGRFAISRTSTTVDLKMTSLTAADTATYFCARLLNIWGPGTLVTVSS
VL: ADIVLTQTPSPVSIAVGGTVTINCQASQSVYDNKNLAWFQQKPGQPPKQLIYGASTLASGVPSRFKGSGSGTQFTLTISGMQCDDAATYYCGGRDSDNIYDFGGGTEVVVK
Molecule B14 had a rank by relative ELISA signal across the dilution series (1 = highest) in [9] of 8.

B15: Antibody 10G3-1 (antibody, V domains shown)
VH: QSVEESGGRLVTPGTPLTLTCTASGFSLSDDAMSWVRQAPGKGLEWIGIIGRRGKTWYANWAKGRFTISKTSTTVDLKITSPTTEDTATYFCARGYVSSDWNIYGMDLWGPGTLVTVSA
VL: QVLTQTPSPVSAAVGGTVTINCQASQSVYNNKNLAWYQQKSGQPPKLLIYEASKLASGVPSRFKGSGSGTQFTLTISGVQCDDAATYYCQGEFSCSSADCFTFGGGTEVVVK
On to B15, for which, in experiment [9], the rank by relative ELISA signal across the dilution series (1 = highest) is 5.

Source of the values: patent publication US12649778.
